In the assay the target is PtTamH (Pseudoalteromonas tunicata). In words: SEC; size exclusion chromatography of purified recombinant PtTamH after IMAC; retention volume corresponds to >200 kDa. On the technique in general: Size exclusion chromatography separates by hydrodynamic size, large species first.

What is called stoichiometry N is a count of units in the complex or per binding partner.

For PtTamH (enzyme), the stoichiometry N worked out at 2.

Source of the values: article PMC9594044.
